Assay results taken from IntAct's records for PubMed 36931259.

B1: 14-3-3 protein sigma (Homo sapiens), P31947 (parent)
chain: MERASLIQKAKLAEQAERYEDMAAFMKGAVEKGEELSCEERNLLSVAYKNVVGGQRAAWRVLSSIEQKSNEEGSEEKGPEVREYREKVETELQGVCDTVLGLLDSHLIKEAGDAESRVFYLKMKGDYYRYLAEVATGDDKKRIIDSARSAYQEAMDISKKEMPPTNPIRLGLALNFSVFHYEIANSPEEAISLAKTTFDEAMADLHTLSEDSYKDSTLIMQLLRDNLTLWTADNAGEEGGEAPQEPQS
partner: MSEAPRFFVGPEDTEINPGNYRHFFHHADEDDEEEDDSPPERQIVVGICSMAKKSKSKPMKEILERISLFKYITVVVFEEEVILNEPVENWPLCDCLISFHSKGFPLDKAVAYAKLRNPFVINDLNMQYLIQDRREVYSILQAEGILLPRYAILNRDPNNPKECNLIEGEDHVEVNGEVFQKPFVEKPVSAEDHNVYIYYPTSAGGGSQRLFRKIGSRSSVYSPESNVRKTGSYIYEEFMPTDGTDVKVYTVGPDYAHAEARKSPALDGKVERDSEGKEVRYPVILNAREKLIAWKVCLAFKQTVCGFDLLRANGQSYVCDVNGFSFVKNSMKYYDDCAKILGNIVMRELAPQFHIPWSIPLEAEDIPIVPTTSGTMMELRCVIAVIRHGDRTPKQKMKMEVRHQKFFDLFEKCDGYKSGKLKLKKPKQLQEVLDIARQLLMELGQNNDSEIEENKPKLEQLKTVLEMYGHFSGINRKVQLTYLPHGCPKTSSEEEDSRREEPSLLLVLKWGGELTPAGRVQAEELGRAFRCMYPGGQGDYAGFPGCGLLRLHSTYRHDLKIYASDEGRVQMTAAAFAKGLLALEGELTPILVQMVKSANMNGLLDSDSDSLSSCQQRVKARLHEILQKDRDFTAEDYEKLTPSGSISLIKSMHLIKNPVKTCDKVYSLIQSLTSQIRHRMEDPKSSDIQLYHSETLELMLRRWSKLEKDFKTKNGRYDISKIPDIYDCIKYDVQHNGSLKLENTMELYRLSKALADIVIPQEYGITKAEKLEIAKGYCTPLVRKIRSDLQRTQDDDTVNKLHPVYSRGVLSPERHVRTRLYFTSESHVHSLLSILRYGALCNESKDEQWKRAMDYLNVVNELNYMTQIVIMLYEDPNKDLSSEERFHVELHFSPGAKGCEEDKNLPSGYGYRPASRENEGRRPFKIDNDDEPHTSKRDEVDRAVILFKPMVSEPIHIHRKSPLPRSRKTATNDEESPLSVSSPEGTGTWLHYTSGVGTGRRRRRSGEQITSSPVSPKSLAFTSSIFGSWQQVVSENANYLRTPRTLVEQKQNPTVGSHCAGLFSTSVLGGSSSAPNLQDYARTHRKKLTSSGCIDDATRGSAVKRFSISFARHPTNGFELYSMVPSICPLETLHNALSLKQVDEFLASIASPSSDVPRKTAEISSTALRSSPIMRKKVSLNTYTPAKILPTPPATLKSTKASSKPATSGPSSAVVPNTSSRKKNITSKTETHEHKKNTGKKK
B2: 14-3-3 protein sigma (Homo sapiens), P31947 (parent)
chain: B1 chain
partner: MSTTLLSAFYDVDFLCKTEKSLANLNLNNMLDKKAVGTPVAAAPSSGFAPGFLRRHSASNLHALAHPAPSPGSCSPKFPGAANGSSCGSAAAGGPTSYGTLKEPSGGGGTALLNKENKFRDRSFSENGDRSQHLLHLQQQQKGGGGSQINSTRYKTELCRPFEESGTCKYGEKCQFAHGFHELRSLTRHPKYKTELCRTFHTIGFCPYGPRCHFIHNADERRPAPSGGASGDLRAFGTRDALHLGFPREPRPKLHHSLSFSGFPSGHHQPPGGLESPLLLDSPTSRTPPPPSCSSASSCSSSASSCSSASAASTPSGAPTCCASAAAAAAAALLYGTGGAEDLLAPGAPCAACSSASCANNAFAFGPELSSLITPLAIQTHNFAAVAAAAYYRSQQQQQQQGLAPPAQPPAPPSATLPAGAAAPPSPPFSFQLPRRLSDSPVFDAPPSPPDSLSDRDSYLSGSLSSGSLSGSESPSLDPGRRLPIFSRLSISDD
B3: 14-3-3 protein sigma (Homo sapiens), P31947 (parent)
chain: B1 chain
partner: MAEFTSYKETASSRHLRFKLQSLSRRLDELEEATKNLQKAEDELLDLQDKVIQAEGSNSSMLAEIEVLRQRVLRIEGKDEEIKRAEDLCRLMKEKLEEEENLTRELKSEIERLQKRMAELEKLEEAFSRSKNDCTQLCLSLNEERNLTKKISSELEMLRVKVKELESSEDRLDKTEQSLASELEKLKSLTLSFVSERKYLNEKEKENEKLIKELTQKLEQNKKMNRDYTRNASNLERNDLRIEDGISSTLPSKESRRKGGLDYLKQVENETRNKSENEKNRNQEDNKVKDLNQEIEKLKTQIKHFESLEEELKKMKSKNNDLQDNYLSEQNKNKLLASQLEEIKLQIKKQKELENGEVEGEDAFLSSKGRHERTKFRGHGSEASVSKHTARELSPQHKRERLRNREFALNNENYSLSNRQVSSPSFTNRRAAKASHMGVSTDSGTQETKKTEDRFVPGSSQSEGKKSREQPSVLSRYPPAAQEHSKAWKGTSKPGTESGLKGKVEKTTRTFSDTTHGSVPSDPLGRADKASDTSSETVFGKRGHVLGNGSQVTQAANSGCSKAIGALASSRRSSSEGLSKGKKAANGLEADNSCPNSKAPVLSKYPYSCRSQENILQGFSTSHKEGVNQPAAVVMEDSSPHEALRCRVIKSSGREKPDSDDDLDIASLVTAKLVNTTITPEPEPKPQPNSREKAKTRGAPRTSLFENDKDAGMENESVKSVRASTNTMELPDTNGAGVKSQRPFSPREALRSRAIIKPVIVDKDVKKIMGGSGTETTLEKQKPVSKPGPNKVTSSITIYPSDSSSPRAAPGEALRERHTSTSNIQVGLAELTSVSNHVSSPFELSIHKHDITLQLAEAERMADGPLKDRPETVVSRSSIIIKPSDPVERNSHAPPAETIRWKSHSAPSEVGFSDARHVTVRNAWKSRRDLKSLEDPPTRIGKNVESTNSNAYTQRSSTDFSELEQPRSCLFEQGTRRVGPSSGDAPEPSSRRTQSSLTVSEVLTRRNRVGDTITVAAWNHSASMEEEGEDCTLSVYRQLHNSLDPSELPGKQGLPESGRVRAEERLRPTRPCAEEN
B4: 14-3-3 protein sigma (Homo sapiens), P31947 (parent)
chain: B1 chain
partner: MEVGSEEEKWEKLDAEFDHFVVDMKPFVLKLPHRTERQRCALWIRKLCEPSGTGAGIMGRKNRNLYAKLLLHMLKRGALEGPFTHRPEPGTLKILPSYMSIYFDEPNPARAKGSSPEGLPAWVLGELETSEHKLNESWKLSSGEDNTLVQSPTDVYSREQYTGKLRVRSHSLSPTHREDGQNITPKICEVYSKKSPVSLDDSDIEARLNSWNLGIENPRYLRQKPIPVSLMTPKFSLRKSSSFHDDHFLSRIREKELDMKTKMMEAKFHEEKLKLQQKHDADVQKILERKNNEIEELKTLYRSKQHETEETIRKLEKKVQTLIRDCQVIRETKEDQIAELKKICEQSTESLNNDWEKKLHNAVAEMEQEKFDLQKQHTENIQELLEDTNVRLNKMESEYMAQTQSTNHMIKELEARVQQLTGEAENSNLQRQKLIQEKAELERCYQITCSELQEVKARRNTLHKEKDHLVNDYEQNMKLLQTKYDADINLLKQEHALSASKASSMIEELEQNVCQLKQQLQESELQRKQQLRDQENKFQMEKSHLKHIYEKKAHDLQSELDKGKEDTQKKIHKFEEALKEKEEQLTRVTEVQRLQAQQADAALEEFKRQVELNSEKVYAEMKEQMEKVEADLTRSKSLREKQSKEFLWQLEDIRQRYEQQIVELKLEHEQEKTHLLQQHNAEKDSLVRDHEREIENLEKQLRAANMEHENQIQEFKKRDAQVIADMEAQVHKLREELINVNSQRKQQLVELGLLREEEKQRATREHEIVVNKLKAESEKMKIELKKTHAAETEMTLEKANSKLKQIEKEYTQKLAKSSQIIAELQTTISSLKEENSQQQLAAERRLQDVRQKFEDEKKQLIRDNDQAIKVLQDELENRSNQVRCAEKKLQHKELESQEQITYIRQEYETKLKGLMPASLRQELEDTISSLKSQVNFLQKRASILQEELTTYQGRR
B5: 14-3-3 protein sigma (Homo sapiens), P31947 (parent)
chain: B1 chain
partner: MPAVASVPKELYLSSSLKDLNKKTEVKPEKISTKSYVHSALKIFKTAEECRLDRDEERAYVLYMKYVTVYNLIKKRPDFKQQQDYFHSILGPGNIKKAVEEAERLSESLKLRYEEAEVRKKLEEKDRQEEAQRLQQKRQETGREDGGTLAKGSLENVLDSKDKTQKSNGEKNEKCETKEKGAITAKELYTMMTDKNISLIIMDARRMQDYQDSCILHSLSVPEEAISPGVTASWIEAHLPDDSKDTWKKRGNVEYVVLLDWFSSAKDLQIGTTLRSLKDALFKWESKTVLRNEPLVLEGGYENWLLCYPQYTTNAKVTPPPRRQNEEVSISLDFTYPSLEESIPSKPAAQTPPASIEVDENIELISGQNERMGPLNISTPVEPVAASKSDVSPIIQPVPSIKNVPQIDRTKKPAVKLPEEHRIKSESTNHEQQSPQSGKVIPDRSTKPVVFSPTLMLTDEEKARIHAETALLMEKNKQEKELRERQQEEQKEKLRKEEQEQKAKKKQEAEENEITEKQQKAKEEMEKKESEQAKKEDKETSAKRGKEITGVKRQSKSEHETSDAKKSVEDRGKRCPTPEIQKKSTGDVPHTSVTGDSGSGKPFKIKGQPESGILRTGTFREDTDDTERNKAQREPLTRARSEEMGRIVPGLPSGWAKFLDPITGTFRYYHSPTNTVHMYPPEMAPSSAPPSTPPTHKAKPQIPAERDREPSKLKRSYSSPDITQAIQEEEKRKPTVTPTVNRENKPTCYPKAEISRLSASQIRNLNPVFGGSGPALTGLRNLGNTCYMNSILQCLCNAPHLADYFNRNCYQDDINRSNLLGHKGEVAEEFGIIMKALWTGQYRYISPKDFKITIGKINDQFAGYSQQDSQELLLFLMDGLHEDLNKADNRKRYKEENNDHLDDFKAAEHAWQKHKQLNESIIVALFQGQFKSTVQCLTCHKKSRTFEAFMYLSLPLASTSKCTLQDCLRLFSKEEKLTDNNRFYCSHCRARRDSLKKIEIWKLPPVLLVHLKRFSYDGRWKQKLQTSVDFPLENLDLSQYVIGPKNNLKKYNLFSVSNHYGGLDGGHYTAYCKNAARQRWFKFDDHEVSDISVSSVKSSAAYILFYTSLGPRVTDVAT

Variants of: B1
Conditions: with vip2_human PPIP5K2, O43314

Variant | effect of a mutation on the interaction
K49E;R56E;V178D | decreasing interaction strength

Variants of: B2
Conditions: with tisd_human ZFP36L2, P47974

Variant | effect of a mutation on the interaction
K49E;R56E;V178D | decreasing interaction strength

Variants of: B3
Conditions: with luzp1_human LUZP1, Q86V48

Variant | effect of a mutation on the interaction
K49E;R56E;V178D | decreasing interaction strength

Variants of: B4
Conditions: with ce112_human CEP112, Q8N8E3

Variant | effect of a mutation on the interaction
K49E;R56E;V178D | decreasing interaction strength

Variants of: B5
Conditions: with ubp8_human USP8, P40818

Variant | effect of a mutation on the interaction
K49E;R56E;V178D | decreasing interaction strength
